Earlier results as cited in publication PMC7369927.
Read-outs that look alike come from different tables or passages of the source.

Assays:
AT1 receptor [1] = target: AT1 receptor (UniProt P30556)
AT1 receptor [2] = target: AT1 receptor (UniProt P30556); remark: listed apart in the source

UniProt P30556, sequence (P30556 whole entry): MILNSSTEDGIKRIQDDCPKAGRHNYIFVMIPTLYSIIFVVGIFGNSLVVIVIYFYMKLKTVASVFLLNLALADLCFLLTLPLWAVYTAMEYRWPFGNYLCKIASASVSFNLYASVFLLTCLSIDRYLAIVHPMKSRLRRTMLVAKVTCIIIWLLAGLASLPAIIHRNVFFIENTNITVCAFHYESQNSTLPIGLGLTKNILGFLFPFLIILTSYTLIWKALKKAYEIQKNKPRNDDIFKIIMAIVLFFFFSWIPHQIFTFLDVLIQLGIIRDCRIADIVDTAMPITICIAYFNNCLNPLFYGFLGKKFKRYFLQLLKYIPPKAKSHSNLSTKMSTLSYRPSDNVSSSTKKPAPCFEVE

| Substance | Kd (AT1 receptor [1]) | Kd (AT1 receptor [2]) |
| --- | --- | --- |
| Ang II (from UniProt P01019) | 2 nM | – |
| Ang-(1-7) (from UniProt P01019) | – | 200 nM |
